{"source": "patent US9101618B2", "about": "“Method for treating and/or preventing neurodegenerative disease by adiponectin receptor agonist” (TOKYO METROPOLITAN INSTITUTE OF MEDICAL SCIENCE, priority 2011, dated 2015)", "molecules": {"B1": {"name": "adiponectin: recombinant human adiponectin (trimer, PROSPEC) added to serum-free medium at 1 μg/mL (protein, UniProt Q15848 19-244, looked up)", "Adiponectin": "ETTTQGPGVLLPLPKGACTGWMAGIPGHPGHNGAPGRDGRDGTPGEKGEKGDPGLIGPKGDIGETGVPGAEGPRGFPGIQGRKGEPGEGAYVYRSAFSVGLETYVTIPNMPIRFTKIFYNQQNHYDGSTGKFHCNIPGLYYFAYHITVYMKDVKVSLFKKDKAMLFTYDQYQENNVDQASGSVLLHLEVGDQVWLQVYGEGERNGLYADNDNDSTFTGFLLYHDTN"}}, "type_in_all_cases": "cell-based, rat", "key": {"p38 MAPK": {"system": "p38 MAPK", "assay": "Adiponectin addition (2): signal transduction, phospho-p38 MAPK western blotting", "settings": "1 μg/mL, 0, 10 and 30 min", "method": "(§1) The B103 neuroblastoma cells (α (alpha)S) and the B103 neuroblastoma cells (vector) were inoculated on a 5 cm dish and cultured to a state of about 80-90% confluence. Later, the aforementioned cells were washed with PBS, and then cultured in a serum-free medium for four hours. After washing with PBS, the cells were then cultured in a test medium (adiponectin-added group) prepared by adding recombinant human adiponectin (1_μg/mL, trimer, PROSPEC) to a serum-free medium. As a control, there was used a control medium (adiponectin non-added group) prepared by adding thereto PBS instead of recombinant human adiponectin. A culture time was 0, 10 and 30 min when evaluating signal transduction, 0, 1 and 2 hour(s) when evaluating tau phosphorylation. The cells collected were lysed with a cell lysis solution (1% TritonX-100, 1% Nonidet P-40, 50 mM HEPES, 150 mM NaCl, 10% glycerol, 1.5 mM MgCl2, 1 mM EGTA, 100_mM sodium fluoride, a protease inhibitor (NACALAI TESQUE, INC.)). Supernatants were collected after performing centrifugation at 100,000×g for 30 min, and were used as surfactant soluble fractions when performing western blotting. Here, western blotting was performed in accordance with the procedures described in example 1. […]"}, "B103 neuroblastoma cells": {"system": "B103 neuroblastoma cells", "assay": "Cytotoxicity due to the addition of adiponectin", "settings": "1 μg/mL", "method": "(§2) The B103 neuroblastoma cells (α (alpha)S) and the B103 neuroblastoma cells (vector) were prepared and cultured in accordance with the procedures described in example 3. The B103 neuroblastoma cells (α (alpha)S) and the B103 neuroblastoma cells (vector) were inoculated on the 6-well plate and cultured to a state of about 80-90% confluence. After washing with PBS, the aforementioned cells were further cultured for 24 hours in a test medium prepared by adding recombinant human adiponectin (1 μg/mL, trimer, PROSPEC) to a serum-free medium. As a control, there was used a control medium prepared by adding thereto PBS instead of recombinant human adiponectin. After culturing, there were prepared the TBS soluble fraction, the SDS soluble fraction and the formic acid soluble fraction in accordance with the procedures described in example 1. Further, western blotting was performed in accordance with the procedures described in example 1. In order to evaluate α (alpha)-synuclein aggregation, an anti-α (alpha)-synuclein mouse monoclonal antibody (syn-1, Nippon Becton Dickinson Company, Ltd) was used as a primary antibody when performing western blotting, the anti-α (alpha)-synuclein mouse monoclonal antibody being diluted appropriately before use. Additionally, an HRP labeled anti-mouse IgG antibody (DAKO) was used as a secondary antibody, the HRP labeled anti-mouse IgG antibody being diluted appropriately before use.\nThe B103 neuroblastoma cells (α (alpha)S) and the B103 neuroblastoma cells (vector) were inoculated on a 5 cm dish and cultured to a state of about 80-90% confluence. Later, the aforementioned cells were washed with PBS, and then cultured in a serum-free medium for four hours. After washing with PBS, the cells were then cultured in a test medium (adiponectin-added group) prepared by adding recombinant human adiponectin (1_μg/mL, trimer, PROSPEC) to a serum-free medium. As a control, there was used a control medium (adiponectin non-added group) prepared by adding thereto PBS instead of recombinant human adiponectin. […]"}, "AMPK": {"system": "AMPK", "assay": "Adiponectin addition (2): signal transduction, phospho-AMPK western blotting", "settings": "1 μg/mL, 0, 10 and 30 min", "method": "as §1"}, "[1]": {"system": "B103 neuroblastoma cells (α (alpha)S)", "assay": "Immunoprecipitation with anti-α-synuclein antibody, detection of phosphorylated tau (Ser 202)", "settings": "1 μg/mL, 24 hours, NP40 soluble fraction", "method": "Immunoprecipitation was performed by standard procedures known to those skilled in the art. Briefly, the B103 neuroblastoma cells (α (alpha)S) were inoculated on a 10 cm dish, and were cultured to a state of about 80-90% confluence. The cells were then washed with PBS, followed by being cultured in a test medium (adiponectin-added group) prepared by adding recombinant human adiponectin (1 μg/mL, trimer, PROSPEC) to a serum-free medium. As a control, there was used a control medium (adiponectin non-added group) prepared by adding thereto PBS instead of recombinant human adiponectin. After being cultured for 24 hours, the cells were then lysed with a NP40 lysis solution (1% IGEPAL CA630 (Sigma-Aldrich Japan Inc), 150 mM NaCl, 50 mM Tris-HCl (pH 8.0), a protease inhibitor (NACALAI TESQUE, INC.)). Supernatants were collected after performing centrifugation at 100,000×g for 30 min. The supernatants thus collected were used as NP40 soluble fractions when performing immunoprecipitation. Immunoprecipitation was performed using Immunoprecipitation Starter Pack (GE Healthcare Japan Corporation) in accordance with a manual provided by the manufacturer and vender. […]"}, "GSK-3β (beta)": {"system": "GSK-3β (beta)", "assay": "Adiponectin addition (2): signal transduction, phospho-GSK-3β western blotting", "settings": "1 μg/mL, 0, 10 and 30 min", "method": "as §1"}, "[2]": {"system": "B103 neuroblastoma cells (α (alpha)S)", "assay": "Adiponectin addition (1): α-synuclein aggregation (western blotting of fractions)", "settings": "1 μg/mL, 24 hours, serum-free medium", "method": "as §2, with “Additionally, an HRP labeled anti-mouse IgG antibody (DAKO) was used as a secondary antibody, the HRP labeled anti-mouse IgG antibody being diluted appropriately before use.” left out"}}, "data": [{"molecule": "B1", "values": [{"measurement": "phosphorylation of p38 MAPK", "setting": "p38 MAPK", "value": "promoted"}, {"measurement": "cytotoxicity", "setting": "B103 neuroblastoma cells; 24 hours (α-synuclein aggregation experiment)", "value": "not particularly observed"}, {"measurement": "cytotoxicity", "setting": "B103 neuroblastoma cells; signal transduction experiment", "value": "not particularly observed"}, {"measurement": "cytotoxicity", "setting": "B103 neuroblastoma cells; tau phosphorylation experiment", "value": "not particularly observed"}, {"measurement": "phosphorylation of AMPK", "setting": "AMPK", "value": "promoted"}, {"measurement": "coprecipitation of phosphorylated tau with α-synuclein", "setting": "[1]", "value": "did not coprecipitate"}, {"measurement": "phosphorylation of GSK-3β", "setting": "GSK-3β (beta)", "value": "promoted"}, {"measurement": "α-synuclein in culture supernatant", "setting": "[2]", "value": "decreased"}, {"measurement": "α-synuclein in the formic acid soluble fraction", "setting": "[2]", "value": "decreased"}]}]}
